Results from patent US20260125455A1.

Legend:
C6 no His (human) [1] = molecular target: C6 no His (human) (UniProt P13671); assay: ELISA, wells coated with 'C6 no His', control mouse IgG; replicate 2
[2] = molecular target: human complement protein C6 (human) (UniProt P13671); assay: ELISA, wells coated with 'C6 from Comptech', control mouse IgG; replicate 1
[3] = molecular target: human complement protein C6 (human) (UniProt P13671); assay: ELISA, wells coated with 'C6 from Comptech', control mouse IgG; replicate 2
[4] = molecular target: purified FIM1-2 domains of C6 (human) (UniProt P13671); assay: ELISA, wells coated with FIM1-2_His, control mouse IgG; replicate 1
Sequence of purified FIM1-2 domains of C6 (human) (P13671 766-934 limits assumed): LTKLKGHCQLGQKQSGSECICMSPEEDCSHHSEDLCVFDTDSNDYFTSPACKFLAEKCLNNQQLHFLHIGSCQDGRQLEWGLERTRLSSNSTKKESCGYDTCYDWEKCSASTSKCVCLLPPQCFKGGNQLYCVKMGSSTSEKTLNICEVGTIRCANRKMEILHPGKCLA

[5] = molecular target: C6Δ634: 1-634_10xHis (human); assay: ELISA, wells coated with the C6 construct, control mouse IgG; replicate 1
Sequence of C6Δ634: 1-634_10xHis (human) (P13671 22-634, stated change not applied): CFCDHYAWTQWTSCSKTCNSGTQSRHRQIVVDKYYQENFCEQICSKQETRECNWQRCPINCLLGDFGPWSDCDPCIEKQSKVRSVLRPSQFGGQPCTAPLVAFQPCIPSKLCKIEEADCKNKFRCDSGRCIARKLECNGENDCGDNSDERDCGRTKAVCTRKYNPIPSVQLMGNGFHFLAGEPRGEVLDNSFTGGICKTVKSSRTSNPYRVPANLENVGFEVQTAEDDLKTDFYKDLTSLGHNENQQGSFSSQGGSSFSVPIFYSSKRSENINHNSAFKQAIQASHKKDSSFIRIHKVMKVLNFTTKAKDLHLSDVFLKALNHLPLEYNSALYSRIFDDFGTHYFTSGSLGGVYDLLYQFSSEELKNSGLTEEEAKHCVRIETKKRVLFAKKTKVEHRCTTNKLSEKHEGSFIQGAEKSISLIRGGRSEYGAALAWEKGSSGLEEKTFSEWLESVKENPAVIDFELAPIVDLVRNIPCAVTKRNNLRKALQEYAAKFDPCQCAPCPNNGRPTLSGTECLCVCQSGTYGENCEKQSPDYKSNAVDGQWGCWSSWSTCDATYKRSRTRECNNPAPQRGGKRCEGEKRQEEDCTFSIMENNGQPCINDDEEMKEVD
C6: 1-934_10xHis (human) [6] = assay: as above
Sequence of C6: 1-934_10xHis (human) (P13671 22-934): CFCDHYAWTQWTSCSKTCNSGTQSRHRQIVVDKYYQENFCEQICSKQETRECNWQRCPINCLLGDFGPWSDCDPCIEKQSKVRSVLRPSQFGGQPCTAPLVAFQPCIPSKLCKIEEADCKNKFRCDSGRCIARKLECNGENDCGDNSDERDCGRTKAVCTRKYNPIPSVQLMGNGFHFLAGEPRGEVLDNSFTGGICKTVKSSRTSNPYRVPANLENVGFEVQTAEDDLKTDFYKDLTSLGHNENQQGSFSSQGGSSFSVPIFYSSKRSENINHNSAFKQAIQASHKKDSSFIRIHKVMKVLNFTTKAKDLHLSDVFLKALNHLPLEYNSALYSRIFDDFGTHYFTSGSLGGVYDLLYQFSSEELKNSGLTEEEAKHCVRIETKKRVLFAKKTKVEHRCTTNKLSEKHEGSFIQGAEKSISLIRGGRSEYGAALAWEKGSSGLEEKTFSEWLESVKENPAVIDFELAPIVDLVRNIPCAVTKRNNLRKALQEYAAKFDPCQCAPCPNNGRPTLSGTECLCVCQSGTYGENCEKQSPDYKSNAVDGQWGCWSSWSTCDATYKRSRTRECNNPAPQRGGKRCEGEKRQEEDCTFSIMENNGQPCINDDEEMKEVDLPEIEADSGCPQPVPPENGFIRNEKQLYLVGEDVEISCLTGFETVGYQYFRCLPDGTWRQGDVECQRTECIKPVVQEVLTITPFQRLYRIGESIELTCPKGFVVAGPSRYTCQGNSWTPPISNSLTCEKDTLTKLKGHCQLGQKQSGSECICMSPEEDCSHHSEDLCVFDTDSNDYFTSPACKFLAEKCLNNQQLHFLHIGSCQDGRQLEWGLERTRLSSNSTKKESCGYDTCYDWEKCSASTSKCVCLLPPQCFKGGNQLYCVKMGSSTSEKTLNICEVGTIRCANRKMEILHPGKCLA

[7] = molecular target: C6Δ762: 1-762_10xHis (human); assay: as above
Sequence of C6Δ762: 1-762_10xHis (human) (P13671 22-762, stated change not applied): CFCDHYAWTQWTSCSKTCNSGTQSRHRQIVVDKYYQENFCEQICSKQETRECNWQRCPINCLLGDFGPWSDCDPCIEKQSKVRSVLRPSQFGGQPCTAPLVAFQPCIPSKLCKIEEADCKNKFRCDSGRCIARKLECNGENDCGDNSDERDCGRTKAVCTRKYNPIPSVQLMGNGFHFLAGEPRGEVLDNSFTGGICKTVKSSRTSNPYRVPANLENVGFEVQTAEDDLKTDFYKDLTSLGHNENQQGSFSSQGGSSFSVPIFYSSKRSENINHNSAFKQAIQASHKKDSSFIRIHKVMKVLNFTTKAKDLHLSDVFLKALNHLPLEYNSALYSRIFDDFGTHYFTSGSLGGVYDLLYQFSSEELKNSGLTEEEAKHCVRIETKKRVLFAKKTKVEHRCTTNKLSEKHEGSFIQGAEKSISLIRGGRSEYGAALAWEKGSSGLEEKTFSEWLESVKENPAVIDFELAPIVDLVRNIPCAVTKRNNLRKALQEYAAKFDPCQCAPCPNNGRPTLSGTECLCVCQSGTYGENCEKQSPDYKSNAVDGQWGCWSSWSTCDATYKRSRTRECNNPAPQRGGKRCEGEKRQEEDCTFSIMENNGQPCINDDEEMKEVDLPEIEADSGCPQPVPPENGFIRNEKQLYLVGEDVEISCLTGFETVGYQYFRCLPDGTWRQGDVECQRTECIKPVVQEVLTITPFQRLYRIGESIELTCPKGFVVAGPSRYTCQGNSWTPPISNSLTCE

[8] = molecular target: C6Δ1-79: SP_79-934_10xHis (human); assay: as above
Sequence of C6Δ1-79: SP_79-934_10xHis (human) (P13671 79-934, stated change not applied): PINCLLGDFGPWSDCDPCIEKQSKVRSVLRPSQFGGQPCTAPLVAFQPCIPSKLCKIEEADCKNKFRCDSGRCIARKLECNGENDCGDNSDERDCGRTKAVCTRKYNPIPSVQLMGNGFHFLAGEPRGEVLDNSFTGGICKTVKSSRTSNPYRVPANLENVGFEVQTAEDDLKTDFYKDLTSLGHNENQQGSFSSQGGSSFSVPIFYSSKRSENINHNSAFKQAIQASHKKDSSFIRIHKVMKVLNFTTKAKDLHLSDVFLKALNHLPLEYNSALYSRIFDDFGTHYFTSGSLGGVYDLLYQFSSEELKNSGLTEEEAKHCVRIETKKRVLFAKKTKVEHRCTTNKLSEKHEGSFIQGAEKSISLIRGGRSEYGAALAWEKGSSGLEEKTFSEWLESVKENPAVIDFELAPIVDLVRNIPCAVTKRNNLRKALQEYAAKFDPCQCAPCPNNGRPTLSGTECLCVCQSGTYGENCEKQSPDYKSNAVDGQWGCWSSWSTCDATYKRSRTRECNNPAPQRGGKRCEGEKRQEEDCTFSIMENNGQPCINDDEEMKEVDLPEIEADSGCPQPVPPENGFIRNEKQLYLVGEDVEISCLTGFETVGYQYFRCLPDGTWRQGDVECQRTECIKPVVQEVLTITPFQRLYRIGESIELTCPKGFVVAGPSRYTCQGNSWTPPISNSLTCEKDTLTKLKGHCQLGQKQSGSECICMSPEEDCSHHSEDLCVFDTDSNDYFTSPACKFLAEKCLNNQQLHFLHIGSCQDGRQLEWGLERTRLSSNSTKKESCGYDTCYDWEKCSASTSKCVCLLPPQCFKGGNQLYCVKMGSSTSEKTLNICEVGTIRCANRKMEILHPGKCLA

C6 no His (human) [9] = molecular target: C6 no His (human) (UniProt P13671); assay: ELISA, wells coated with 'C6 no His', control mouse IgG; replicate 1
[10] = molecular target: purified FIM1-2 domains of C6 (human) (UniProt P13671); assay: ELISA, wells coated with FIM1-2_His, control mouse IgG; replicate 2
[11] = molecular target: C6Δ634: 1-634_10xHis (human); assay: ELISA, wells coated with the C6 construct, control mouse IgG; replicate 2
C6: 1-934_10xHis (human) [12] = assay: as above
[13] = molecular target: C6Δ762: 1-762_10xHis (human); assay: as above
[14] = molecular target: C6Δ1-79: SP_79-934_10xHis (human); assay: as above

Sequence of C6 no His (human) (P13671 22-934 limits assumed): as the sequence (P13671 22-934) above
Sequence of human complement protein C6 (human) (P13671 22-934 limits assumed): as the sequence (P13671 22-934) above

mIgG (antibody)
ELISA plate reading (no name or unit printed) (C6 no His (human) [1]): 0.115 | ELISA plate reading (no name or unit printed) [2]: 0.0666 | ELISA plate reading (no name or unit printed) [3]: 0.0728 | ELISA plate reading (no name or unit printed) [4]: 0.0413 | ELISA plate reading (no name or unit printed) [5]: 0.0441 | ELISA plate reading (no name or unit printed) (C6: 1-934_10xHis (human) [6]): 0.0472 | ELISA plate reading (no name or unit printed) [7]: 0.0623 | ELISA plate reading (no name or unit printed) [8]: 0.0811 | ELISA plate reading (no name or unit printed) (C6 no His (human) [9]): 0.0488 | ELISA plate reading (no name or unit printed) [10]: 0.0429 | ELISA plate reading (no name or unit printed) [11]: 0.0472 | ELISA plate reading (no name or unit printed) (C6: 1-934_10xHis (human) [12]): 0.0481 | ELISA plate reading (no name or unit printed) [13]: 0.0648 | ELISA plate reading (no name or unit printed) [14]: 0.0935
